This series in a line: yeast display, Sf9 membrane polyspecificity reagent, FACS + sequencing; frameworks hold sequencing errors. The procedure, abridged: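 Nanobodies from a synthetic yeast display library (Saccharomyces cerevisiae BJ5465), induced 36–48 hours with galactose, were stained 1 hour at 4 °C with 10% biotinylated, detergent-solubilized Sf9 membrane reagent, enriched on streptavidin microbeads, then FACS-sorted. Anti-HA (expression) and streptavidin (reagent binding) fluorescence set low and high (top ~1%) gates. Polyreactivity labels come from the gate of origin. Genes were colony-PCR amplified, MiSeq 2 × 250 sequenced and filtered by CDR length.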
For “QVQLVESGGGLVQAGGSLRISCAASGSTFSYYAMGWYRQAPGKERELVADISWSGGSTYYADSVKGRFTISRDNAKNTVYLQMNSQKPEDTAVFYCAARGYVRWYNRYDYWGQGTQVTVSS”, the “polyreactivity (PSR sort gate)” value is on record as “low polyreactivity”.

For “QVQLVESGGGLVQAGGSLRISCAASGSTFTTYAMGWYRQAPGKERELVARIRSSGGITYYADSVKGRFTISRDNAKNTVYLQMNSLKPEDTAVYYCAARGQFYNTRVGYWGQGTQVTVSS”, the “polyreactivity (PSR sort gate)” value is on record as “high polyreactivity”.

In the case of “QVQLVESGGGLVQAGGSLRISCAASGSTFWYHAKGWSRQAPGKERELVATITNSGGSTYYADSVKGRFTISRDNAKNTVYLQKNSLKPEDTAVYYGATDVYSGALLKYDFWGQGTQVTVSS”, the “polyreactivity (PSR sort gate)” value was “low polyreactivity”.

On to “QVQLVESGGGLVQAGGSLRISCAASGSTLGYYAMGWYRPAPAKESELVAAISRGGGSTYYADSVKGRFTISRDNAKNTVYLQMNSLKPEVTAVYYCNKYFAYGDFDYWGQGTQVTVSS”, for which the “polyreactivity (PSR sort gate)” value is listed as “high polyreactivity”.

Turning to “QVQLVESGGGLVQAGGSLRISCAASGSTLQYYAMGWYRQAPGKERELVAAISWRGARTYYADSVKGRFTISRDNAKNTVYLQMNSLKPQDTAVYYCAAVYGSRGYAGNYYWGHGTQVTVSS”, the “polyreactivity (PSR sort gate)” value is given as “high polyreactivity”.

Consider “QVQLVESGGGLVQAGGSLRISCAASGSTSSRNAMGWYRQAPGKERELVAAITSGTRTYYADSVKGRFTISRDNAKNSVYLQRNSLKPEDTAVYYCARGRVSRYTKTDYDYWGQGSQVTVSS”, for which the “polyreactivity (PSR sort gate)” value is on record as “high polyreactivity”.

Consider “QVQLVESGGGLVQAGGSLRISCAASGYIYGYNAMGWYRQAPGIAREFVAAIRFSGGSTYYADSVKGRFTISRDNAKNTVYLQMNSLKPEDTAVYYCAKRCYAHLIPIAYEYWGQGTQVTVSS”, for which the “polyreactivity (PSR sort gate)” value is “low polyreactivity”.

“QVQLVESGGGLVQAGGSLRISCAASGYTFASYTMGWYRQAPGKERELVATISRGGGRTYYADSVKGRFTISRDNAKNTVYLQLNSLKPEDTAVYYCARPSTFFTGYRQAHFDYWGQGTQVTVSS”: the “polyreactivity (PSR sort gate)” value is “high polyreactivity”.

In the case of “QVQLVESGGGLVQAGGSLRISCAASGYTFFNYAMGWSRQAPGKERELVAAITWSGGSRYYADSVKGRFTISRVNAKNTVYLQMNSLKPEDTAVYYCAADAITPRDPYVTEKLDYWGQGTQVTVSS”, the “polyreactivity (PSR sort gate)” value is on record as “low polyreactivity”.

On to “QVQLVESGGGLVQAGGSLRISCAASVSTFGRYAMGWYRQAPGKERELVAAISRGTTTNYADSVKGRFTISRDNAKNTVYLQMNSLKPEDTAVYYCAADQPSKRYYYWGQGTQVTVSS”, for which the “polyreactivity (PSR sort gate)” value was “low polyreactivity”.

“QVQLVESGGGLVQAGGSLRISCAAYGRIFWWYAMGWYRQAPGKERELVASIRYGGGSTYYADSVKGRFTISRDNAKNTVYLQMNSLKPEDTAVYYCAARFKRHGRSDYWGQGTQVTVSS”: the “polyreactivity (PSR sort gate)” value was “high polyreactivity”.

In the case of “QVQLVESGGGLVQAGGSLRISCADCGSIFEVNAMGWYRPAPGTERELVAAISSGDRTNYADSVKGRFTISRDNAKNTVYLQMNSLKPEDTAVYYCNKGAAWRPFFGPYYNYEYWGQGTQVTVSS”, the “polyreactivity (PSR sort gate)” value was “high polyreactivity”.

Consider “QVQLVESGGGLVQAGGSLRISCDASGRTFYYYAMGWYRQAPGKERELVASITITDSTNYADSVKGRFTISRDNAKNTVYLQMNSLKPEDTAVYYCAKRGWGTSFYLSDYWGQGTEVTVSS”, for which the “polyreactivity (PSR sort gate)” value is recorded as “low polyreactivity”.

Turning to “QVQLVESGGGLVQAGGSLRISCDASGSTFYPYAMGWYRQAPGKERELVAAISSGGSTSYADSVKGRFTISRDNAKNTVYLQMNSLKPEDTAVYYCNASSPGAVPVYDYDYWGQGTQVTVSS”, the “polyreactivity (PSR sort gate)” value is on record as “low polyreactivity”.

For “QVQLVESGGGLVQAGGSLRISCGASGSTFAQNVMGWDRQAPGKERELVAAITSSGSTNYADSVKGRFTISRDNAKNTVYLQMNSLKPEDSAVYYCAKDVLAPYSRHDYWGQGTQVTVSS”, the “polyreactivity (PSR sort gate)” value is “low polyreactivity”.

On to “QVQLVESGGGLVQAGGSLRISSAASGFNSPSYAMGWYRQAPGKERELVAAISSGDSTNYADSVKGRFTISRDNAKNTVYLLMNSLKPEDTAVYYCAARYREQYDYWGQGTQVTVSS”, for which the “polyreactivity (PSR sort gate)” value was “low polyreactivity”.

On to “QVQLVESGGGLVQAGGSLRISSAASGLTFYRYAIGWYRQAPGKERELVAAIRSNVVTTYYADSVKGRFTISRDNAKNTVYLKMNSLKPEDTAVYYCAARFGRSAPPGYDYWGQGTQVTVSS”, for which the “polyreactivity (PSR sort gate)” value is listed as “high polyreactivity”.

With “QVQLVESGGGLVQAGGSLRISSAASGSTFSRYAMGWYRQAPGKERELVAAISWRGGRTYYADSVKGRFTISRDNAKNTVYLQMNSLKPEDTAVYYCNAVSSFTSPRYDYWGQGTQVTVSS”, the “polyreactivity (PSR sort gate)” value is recorded as “high polyreactivity”.

In the case of “QVQLVESGGGLVQAGGSLRISWAASGSTFGYYAMGWYRQAPGKDREWVAAISLGGGSTYYADSVKGRFTISRDNAKNTVYLQMNSLKPDDTAVYYCAARPYVRVKWKFNYWGQGTQVTVSS”, the “polyreactivity (PSR sort gate)” value was “low polyreactivity”.

For the sequence “QVQLVESGGGLVQAGGSLRITCAASGSIFTGNAMGWYRQAPGKERELVAAISSSGGSTYYADSVKGRFTLSRDNAKNTVYLQMNSMKPEDTAVYYCAAYNNFLQYDYWGQGTQVTVSS”, the “polyreactivity (PSR sort gate)” value is reported as “low polyreactivity”.

On to “QVQLVESGGGLVQAGGSLRITCAASGSTYYHNVMGRYRPAPGKERELVARISSGGGSTSYADSVKGRFTISRDNAKNTVYLQMNSLKPEETAVYYCNKYYTKRGYFLPWYHYGSWGQGTQVTLSS”, for which the “polyreactivity (PSR sort gate)” value is recorded as “high polyreactivity”.

For “QVQLVESGGGLVQAGGSLRLAVLPPELTSTLNDMGWYRQAPGKERELVAAITRGGSTNYADSVKGRFTISRDNAKYTFYLQMNSMKPEDSAVYYCAAPYAGLRDGGDYWGQGTQVTVSS”, the “polyreactivity (PSR sort gate)” value is reported as “low polyreactivity”.

Regarding “QVQLVESGGGLVQAGGSLRLCCAASGITFNYYTMGWYRQAAGNERELVAAIRSGGRTYYADSVKGRFTISRDNAKNTVYLQMNSLKPEDTAVYYGAALAVTYPYDYWGQGTQVTVSS”, the “polyreactivity (PSR sort gate)” value is recorded as “high polyreactivity”.

Take “QVQLVESGGGLVQAGGSLRLCCAASGSTFGYYAMGWYRQAPGKDRELVAVITWNGGGTYYADSVKGRFTISRDNAKNTVYLQMNSLKPEDTAVYDCAADASLYTDEYDYWGQGTQVTVSS”: the “polyreactivity (PSR sort gate)” value is recorded as “low polyreactivity”.

For the sequence “QVQLVESGGGLVQAGGSLRLCCAASGSTFYYYAMGWYRQAPGKVRELVASITTGGGSTYYADSVKGRFTISRDNAKNTVYLQMNSLKPEDTAVSYCAAALAYYYWWYDYWGQGTQVTASS”, the “polyreactivity (PSR sort gate)” value is recorded as “low polyreactivity”.

Turning to “QVQLVESGGGLVQAGGSLRLCCAATGSIFPGNAMGWYRQAPGKEMELVATNTWSGGSTYYADSVKGRFTISRDNAKNTVYFQMKSLKPVDTAVYYCKADSSWFYQWKDYGMYDYWGQGTQVTVSS”, the “polyreactivity (PSR sort gate)” value is “low polyreactivity”.

As for “QVQLVESGGGLVQAGGSLRLICAAAGFIFKRYAMGWYRQAPGKERELVAAITSNGGRTYYADSVKGRFTISRDNAKNTVYFQMNSLKPEDTEVYYCARVSQYYEQDDYWGQGTQVTVSS”, the “polyreactivity (PSR sort gate)” value is “high polyreactivity”.

As to “QVQLVESGGGLVQAGGSLRLICAASASIFQPYAMGWYRQAPGKERELVAAISKSGGNTYYADSVKGRFSSSRDYAKNTVYLQMNRLKPEVSAVYYCAALDYWGQGTQVTLSS”, the “polyreactivity (PSR sort gate)” value is “low polyreactivity”.

On to “QVQLVESGGGLVQAGGSLRLICAASGFAFSYYAMGWYRQAPGKEREFVASIDWSGGSTYYADSVKGRFTISRDNEKNTVYLQMNSLKPEDTAVYYCAAELDYFPGYDYWGQGTQVTVSS”, for which the “polyreactivity (PSR sort gate)” value is recorded as “low polyreactivity”.

With “QVQLVESGGGLVQAGGSLRLICAASGFIFASNAMGWYRQAPGTERELVASITRGGTTKYADSVKGRFTISRDNAKNTVYLQMNSLKPEDTAVYYCAKRYVRFPWRMDYWGQGTQVTVSS”, the “polyreactivity (PSR sort gate)” value is on record as “high polyreactivity”.

On to “QVQLVESGGGLVQAGGSLRLICAASGFIFDAYAMGWYRQAPGKERELVAAISRTGGSTYYADSVKGRFTISRDNAKNTVYLQMNSLKPEDTAVYYCTAYKSHDDYYWGQGTQITVSS”, for which the “polyreactivity (PSR sort gate)” value is recorded as “high polyreactivity”.

For “QVQLVESGGGLVQAGGSLRLICAASGFIFDPYAMGSYRQATGKVRELVAAISSGGSTYYADSVKGRFTISRDNAKNTVYLQMNSLKPEDNAVYYCAKVYVRYDSSTQTYLNTYGYWGQGTQVTVSS”, the “polyreactivity (PSR sort gate)” value is reported as “high polyreactivity”.

With “QVQLVESGGGLVQAGGSLRLICAASGFIFFINDMGWYRQAPGKEREWVAAISWSGGSTYYADSVKGRFTISRDNEKNNFYIQMNSLKAEETAGYYFKTDVPTAQYDYWGQGTQVTVSS”, the “polyreactivity (PSR sort gate)” value is recorded as “low polyreactivity”.

With “QVQLVESGGGLVQAGGSLRLICAASGFIFGHNAMGWYRQAPGKERELVAAITWRGRTYYADSVKGRFTISRDNAKNCVYLQMNSMKPEDTSVFSCNAYVRYGYDYWGQGTQVTVSS”, the “polyreactivity (PSR sort gate)” value is recorded as “high polyreactivity”.

For the sequence “QVQLVESGGGLVQAGGSLRLICAASGFIFNSNAMGWYRQAPGKERELVAAISGRGGSTYYADSVKGRVTISRDNAKNTVYLQMNSLKPEDTAVYYCAAKLRPRYYVSGYDYWGQGTQVTVSS”, the “polyreactivity (PSR sort gate)” value is “high polyreactivity”.

As for “QVQLVESGGGLVQAGGSLRLICAASGFIFPHNTMGWYRQAPGKERELVAAISSGGSTNYADSVKGRFTLSRDNAKNTVYLQMNSLKPEDTAVYYCATVSVRWPSNDHVRYDYWGQGTQVTVSS”, the “polyreactivity (PSR sort gate)” value was “low polyreactivity”.

“QVQLVESGGGLVQAGGSLRLICAASGFIFRTNAMGWYRQAPGKQRELVAAISRSGNTYYADSVKGRFTISRDNAKNTVYLQMNSLKPEDTAVYYCAAQSVRWYSTFKYYYWGQGTQVTVSS”: the “polyreactivity (PSR sort gate)” value is recorded as “high polyreactivity”.

For the sequence “QVQLVESGGGLVQAGGSLRLICAASGFIFTSYTMGWYRQAPGKERELVAAISRSGGRTYYADSVKGRFTISRDNAKNTVYLQMNRLKPVDTAVYYCNAGYPASYYYYGFDYWGQGTQVTVSS”, the “polyreactivity (PSR sort gate)” value is recorded as “high polyreactivity”.

For “QVQLVESGGGLVQAGGSLRLICAASGFIFWRYAMGWYRQAPGKERELVAAISRTSTSTYYADSVKGRFTISRDNAKNSVYLQMNSLKPEDTAVYYCAATFSTFYGYGYWGQGSQVTVSS”, the “polyreactivity (PSR sort gate)” value is given as “high polyreactivity”.

For the sequence “QVQLVESGGGLVQAGGSLRLICAASGFIFWSNAMGWYRQAPGKEMELVAAITWNGGDTYYADSVKGRFTISRDNAKNTVYLQMNSLKPEDTAVYYCAAVHSRRARYDYWGQGTQVTVSS”, the “polyreactivity (PSR sort gate)” value is “low polyreactivity”.

In the case of “QVQLVESGGGLVQAGGSLRLICAASGFILNSYAMGWYRQAPGKERELVAAITRSGGNTFYADSVKGRFKISRDNAKNTVYLQLNSLKPDDTAVYYCNAYFTYWSQLYYWGQGTQVTVSS”, the “polyreactivity (PSR sort gate)” value was “high polyreactivity”.

The values above are taken from the nanobody polyreactivity screen of Harvey et al. (2022).
